This experiment addresses T1, Purified ASB11 bound on anti-Myc beads (human (ASB11 cDNA amplified from 293T …, UniProt Q8WXH4 1-323)).
T1 sequence (looked up): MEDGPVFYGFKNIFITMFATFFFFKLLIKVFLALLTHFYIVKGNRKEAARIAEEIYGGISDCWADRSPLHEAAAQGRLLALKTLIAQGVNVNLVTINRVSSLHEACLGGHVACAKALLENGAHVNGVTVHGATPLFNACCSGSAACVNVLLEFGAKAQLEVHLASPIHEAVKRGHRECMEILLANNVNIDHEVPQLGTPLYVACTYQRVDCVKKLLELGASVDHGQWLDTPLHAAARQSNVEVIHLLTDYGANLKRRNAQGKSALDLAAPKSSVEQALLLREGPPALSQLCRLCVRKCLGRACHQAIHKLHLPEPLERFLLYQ
The experiment is described as follows: pull-down.

B1: 3xFlag-BIK (natural protein, UniProt Q13323 1-160, looked up)
chain: MSEVRPLSRDILMETLLYEQLLEPPTMEVLGMTDSEEDLDPMEDFDSLECMEGSDALALRLACIGDEMDVSLRAPRLAQLSEVAMHSLGLAFIYDQTEDIRDVLRSFMDGFTTLKENIMRFWRSPNPGSWVSCEQVLLALLLLLALLLPLLSGGLHLLLK
Consider B1, for which the binding result is on record as “binds”.

Values taken from PMC6719446 (The Journal of Cell Biology, 2019).
